According to article PMC7002338:

System: CgpS (Corynebacterium glutamicum ATCC 13032 (strain of the protein implied?))
Assay: SPR
Conditions: SPR: biotinylated DNA on streptavidin chip, CgpS 180 s association, 420 s dissociation, EMSA: 14 nM DNA, buffer, salt, pH and temperature in Text S1, not in …

Substance | Kd | Kd (very fast dissociation)
Plys (SPR) | 11 nM | 
Pcg1999 | 58 nM | 
Pcg3336 (control) |  | 381 nM
